Reference: paper doi:10.1101/806364

How the values were obtained:
Assay in all cases: selective 80S ribosome footprinting
[1] = target: eIF3B (human (endogenous in HeLa)) (UniProt P55884)
[2] = target: eIF4E (human (endogenous in HeLa)) (UniProt P06730)
[3] = target: eIF4G1 (human (endogenous in HeLa)) (UniProt Q04637)

Measured: decay half-length of the factor on elongating 80S ribosomes

UniProt P06730, sequence (P06730 whole entry): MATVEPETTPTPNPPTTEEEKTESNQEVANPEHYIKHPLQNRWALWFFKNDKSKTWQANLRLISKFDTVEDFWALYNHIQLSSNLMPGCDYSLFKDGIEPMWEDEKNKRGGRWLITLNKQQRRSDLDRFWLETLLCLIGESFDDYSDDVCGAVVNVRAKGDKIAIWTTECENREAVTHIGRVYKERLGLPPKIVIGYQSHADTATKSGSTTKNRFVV
UniProt Q04637, sequence (Q04637 whole entry): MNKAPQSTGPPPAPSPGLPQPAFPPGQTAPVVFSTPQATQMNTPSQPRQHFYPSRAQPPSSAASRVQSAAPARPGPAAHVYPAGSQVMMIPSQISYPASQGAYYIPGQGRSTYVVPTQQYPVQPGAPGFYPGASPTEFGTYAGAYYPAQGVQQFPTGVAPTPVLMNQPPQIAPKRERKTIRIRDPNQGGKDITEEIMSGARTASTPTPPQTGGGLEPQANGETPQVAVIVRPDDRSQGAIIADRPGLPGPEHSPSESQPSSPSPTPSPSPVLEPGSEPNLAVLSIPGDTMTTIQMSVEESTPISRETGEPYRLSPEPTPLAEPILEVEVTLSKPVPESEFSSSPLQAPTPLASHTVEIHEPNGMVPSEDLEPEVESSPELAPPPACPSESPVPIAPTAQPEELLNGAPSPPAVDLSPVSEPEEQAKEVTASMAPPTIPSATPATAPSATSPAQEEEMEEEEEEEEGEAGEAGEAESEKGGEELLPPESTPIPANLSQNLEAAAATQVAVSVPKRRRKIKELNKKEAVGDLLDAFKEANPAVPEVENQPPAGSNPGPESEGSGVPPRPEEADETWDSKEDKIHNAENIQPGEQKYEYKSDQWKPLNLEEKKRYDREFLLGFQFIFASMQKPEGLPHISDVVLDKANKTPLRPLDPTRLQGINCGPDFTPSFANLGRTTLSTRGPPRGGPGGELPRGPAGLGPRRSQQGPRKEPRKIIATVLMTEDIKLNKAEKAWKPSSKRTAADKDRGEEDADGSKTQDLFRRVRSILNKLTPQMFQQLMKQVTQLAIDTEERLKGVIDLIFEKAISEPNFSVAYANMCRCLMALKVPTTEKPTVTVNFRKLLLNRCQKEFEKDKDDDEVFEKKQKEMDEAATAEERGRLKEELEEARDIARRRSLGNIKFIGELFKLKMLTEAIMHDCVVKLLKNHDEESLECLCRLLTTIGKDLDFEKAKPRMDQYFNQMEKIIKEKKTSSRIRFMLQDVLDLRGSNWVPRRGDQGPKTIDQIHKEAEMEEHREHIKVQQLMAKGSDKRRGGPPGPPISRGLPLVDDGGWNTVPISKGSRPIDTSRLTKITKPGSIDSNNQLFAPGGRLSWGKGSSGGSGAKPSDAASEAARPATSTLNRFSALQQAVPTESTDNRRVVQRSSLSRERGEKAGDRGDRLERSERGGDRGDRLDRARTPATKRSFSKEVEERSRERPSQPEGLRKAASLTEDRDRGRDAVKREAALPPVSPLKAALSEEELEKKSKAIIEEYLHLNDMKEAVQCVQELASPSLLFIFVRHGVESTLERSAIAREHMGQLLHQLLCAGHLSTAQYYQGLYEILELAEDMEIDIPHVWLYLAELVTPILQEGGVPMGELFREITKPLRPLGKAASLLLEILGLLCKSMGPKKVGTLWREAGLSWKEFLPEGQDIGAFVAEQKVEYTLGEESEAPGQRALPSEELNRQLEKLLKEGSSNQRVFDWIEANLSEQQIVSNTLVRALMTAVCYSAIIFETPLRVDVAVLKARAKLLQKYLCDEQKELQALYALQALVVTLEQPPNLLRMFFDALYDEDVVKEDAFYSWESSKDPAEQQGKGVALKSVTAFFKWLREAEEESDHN
UniProt P55884, sequence (P55884 whole entry): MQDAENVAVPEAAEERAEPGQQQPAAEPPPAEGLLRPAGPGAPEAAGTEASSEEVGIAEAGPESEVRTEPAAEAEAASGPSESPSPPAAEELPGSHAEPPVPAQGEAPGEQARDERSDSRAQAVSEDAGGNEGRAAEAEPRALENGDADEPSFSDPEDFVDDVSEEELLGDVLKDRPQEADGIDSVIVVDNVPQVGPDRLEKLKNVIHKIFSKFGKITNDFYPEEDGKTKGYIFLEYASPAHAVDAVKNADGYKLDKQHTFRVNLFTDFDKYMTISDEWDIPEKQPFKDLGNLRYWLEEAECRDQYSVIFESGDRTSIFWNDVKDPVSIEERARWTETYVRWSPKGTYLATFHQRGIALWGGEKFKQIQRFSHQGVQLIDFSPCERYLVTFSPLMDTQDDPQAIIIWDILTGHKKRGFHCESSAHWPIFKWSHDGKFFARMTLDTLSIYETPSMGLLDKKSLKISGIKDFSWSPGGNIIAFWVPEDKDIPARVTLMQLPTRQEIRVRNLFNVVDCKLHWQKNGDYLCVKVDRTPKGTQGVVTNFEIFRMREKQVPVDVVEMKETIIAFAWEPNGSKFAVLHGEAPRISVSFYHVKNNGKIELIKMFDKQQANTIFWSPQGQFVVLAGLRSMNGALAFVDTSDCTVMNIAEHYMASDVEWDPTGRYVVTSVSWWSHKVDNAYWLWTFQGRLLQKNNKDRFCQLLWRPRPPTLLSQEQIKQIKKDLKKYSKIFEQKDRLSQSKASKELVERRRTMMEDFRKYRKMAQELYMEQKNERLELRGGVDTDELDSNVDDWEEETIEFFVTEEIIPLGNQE

80S ribosome (complex)
36 nucleotides: [1] | [2] | [3]
